Experimental data as given in patent US20240238445A1, “INHIBITORS AND USES THEREOF” (NEURACLE SCIENCE CO., LTD., priority 2021, published 2024).
Values belong to the molecule of their own block, whether it stands above or below them.

What was measured:
[1] = target: T1, FAM19A5 protein (Homo sapiens, UniProt Q7Z5A7); experiment: competitive inhibition ELISA; competitor: coated LRRC4B(453-576, TT/TT)-hFc
[2] = target: T1, FAM19A5 protein; experiment: ELISA, coated hFc-conjugated ectodomain (100 nM/well), rFAM19A5 titrated 0.005-10 nM
[3] = target: T1, FAM19A5 protein; experiment: Co-immunoprecipitation of FLAG-tagged LRRC4 family deletion constructs/fragments with recombinant FAM19A5 in HEK293 cells; format: binding; conditions: HEK293 cells expressing FLAG-tagged construct, recombinant FAM19A5 1 μM 30 minutes; IP anti-FLAG, blot anti-FAM19A5 (3-2)
Experimental: To understand the interaction between FAM19A5 and members of the LRRC4 protein family, HEK293 cells were modified to express a FLAG-tagged member of the LRRC4 protein family, i.e., LRRC4C protein, LRRC4 protein, or LRRC4B protein. Then, the HEK293 cells or primary cortical neurons were treated with recombinant FAM19A5 protein (1 μM) for 30 minutes, and the binding between FAM19A5 protein and the different members of the LRRC4 protein family was assessed using both co-immunoprecipitation and immunofluorescence assays.
For the co-immunoprecipitation assay, cell lysates from the different FAM19A5-treated HEK293 cells were collected and immunoprecipitated with an anti-FLAG antibody, anti-FAM19A5 (1-65) antibody, or a human IgG antibody (control). Immunoprecipitated proteins were immunoblotted with anti-FLAG and anti-FAM19A5 (3-2) antibodies. For the immunofluorescence assay, the HEK293 cells treated with the recombinant FAM19A5 protein were immunostained with anti-FAM19A5 (3-2) (to detect FAM19A5 protein expression) and anti-FLAG antibodies (to detect member of the LRRC4 protein family). The primary cortical neurons treated with the recombinant FAM19A5 protein were immunostained with anti-FAM19A5 (3-2) and anti-LRRC4B antibodies. The nuclei were stained with Hoechst33342 (blue).
To determine the specific motif or domain of the LRRC4B protein that is responsible for the binding to a FAM19A5 protein, various FLAG-tagged LRRC4B deletion constructs were generated (see Table 6 below). HEK293 cells were transfected with the different deletion constructs and then treated with recombinant FAM19A5 protein as described in Example 1. Then, the cell lysates from the different HEK293 cells were immunoprecipitated with the anti-FLAG antibody. The immunoprecipitated proteins were immunoblotted with anti-FLAG and anti-FAM19A5 (3-2) antibodies.
As described in Example 2, all members of the LRRC4 protein family were capable of binding to FAM19A5 protein to varying degrees. Therefore, to compare the bindings domains, the amino acid sequences of the LRRC4B, LRRC4, and LRRC4C proteins were aligned. […] Therefore, to assess whether the corresponding positions of LRRC4 and LRRC4C were important in the binding of these proteins to FAM19A5 protein, cDNAs encoding either (i) LRRC4C protein fragment (amino acids 354-527 of SEQ ID NO: 3; SEQ ID NO: 66) or (ii) LRRC4 protein fragment (amino acids 353-527 of SEQ ID NO: 1; SEQ ID NO: 67) were constructed (see Table 7). HEK293 cells were transfected to express either of the protein fragments and then treated with recombinant FAM19A5 protein as described in Example 1. Then, the cell lysates from the different HEK293 cells were immunoprecipitated with the anti-FLAG antibody. The immunoprecipitated proteins were immunoblotted with anti-FLAG and anti-FAM19A5 (3-2) antibodies.
Target sequence in this assay (Q7Z5A7 44-132): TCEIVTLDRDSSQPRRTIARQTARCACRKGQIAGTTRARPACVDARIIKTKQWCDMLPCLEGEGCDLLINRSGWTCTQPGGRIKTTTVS

[4] = target: binding of FAM19A5 protein to full-length ectodomain of the LRRC4B protein (amino acids 36-576 of SEQ ID NO: 2) (Homo sapiens, UniProt Q7Z5A7); experiment: Competitive inhibition assay, plate coated with full-length ectodomain of LRRC4B (amino acids 36-576); conditions: increasing concentrations; FAM19A5 5 ng/mL; 100 nM coat
Experimental: Next, to further assess the role that the binding domain of the LRRC4B protein has on the interaction between FAM19A5 protein and members of the LRRC4 protein family, a competitive inhibition assay was used to determine whether different LRRC4B deletion constructs from Example 2 could inhibit the binding of FAM19A5 to the full-length ectodomain of the LRRC4B protein (i.e., amino acids 36-576 of SEQ ID NO: 2; SEQ ID NO: 5). Briefly, 100 nM of the full-length ectodomain of the LRRC4B protein was used to coat a plate, and then recombinant FAM19A5 protein (5 ng/mL) was added to the plate in combination with the following LRRC4B deletion constructs (increasing concentrations): (1) LRRC4B (453-576) (i.e., construct #11 in Table 6); (2) LRRC4B (453-576) mutant (comprises alanine substitutions at positions 488 and 489 of SEQ ID NO: 2; SEQ ID NO: 16); (3) LRRC4B (484-576) (i.e., construct #12 in Table 6); (4) LRRC4B (482-576); (5) LRRC4B (482-497); and (6) LRRC4B (498-576). The plates were incubated at 37° C., and then, the amount of FAM19A5 bound to the coated LRRC4B ectodomain protein was measured using HRP-conjugated anti-FAM19A5 (1-65) antibody.
(§1) As described in Example 3, there appeared to be much similarity in the binding domains of the different members of the LRRC4 family. […] Then, recombinant FAM19A5 protein (5 ng/mL) was added in combination with one of the following: (i) LRRC4B (484-576) protein fragment, (ii) LRRC4B (453-576, AA) protein fragment, and (iii) synthetic FB-20 peptide. The plates were incubated at 37° C., and then, the amount of FAM19A5 protein bound to the coated LRRC4, LRRC4B, or LRRC4C proteins was measured using anti-FAM19A5 (1-65) antibody.
Next, to assess whether polypeptides comprising the binding domains of LRRC4 or LRRC4C proteins can have similar inhibitory effects on LRRC4B protein binding, the following synthetic peptides were constructed: (1) FBC4-23 (contains the binding domain of the LRRC4 protein, i.e., YSFFTTVTVETTE); and (2) FBC4C-23 (contains the binding domain of the LRRC4C protein, i.e., FSYFSTVTVETME). Then, the ability of the peptides to inhibit the binding of LRRC4 protein family members to FAM19A5 protein was assessed using a competitive inhibition assay. Briefly, plates were coated with 100 nM of either LRRC4B protein fragment #1 (amino acids 36-576 of SEQ ID NO: 2; SEQ ID NO: 5) or LRRC4B protein fragment #2 (amino acids 453-576 of SEQ ID NO: 2; SEQ ID NO: 7). Then, recombinant FAM19A5 protein (5 ng/ml for plates coated with LRRC4B fragment #1; and 1 ng/mL for plates coated with LRRC4B fragment #2) was added to the plates in combination with 20 nM of the FBC4-23, FBC4C-23, and FB-20 peptides. The plates were incubated at 37° C. and then, the amount of FAM19A5 protein bound to the coated LRRC4B protein fragments was assessed using HRP-conjugated anti-FAM19A5 (1-65) antibody.
Next, to determine the minimal sequence required to inhibit the interaction of FAM19A5 and members of the LRRC4 protein family, ten FB-20 peptide variants were constructed by serially deleting one or more amino acids from the N-terminus or C-terminus of the FB-20 peptide. Then, a competitive inhibition assay was used to assess the ability of the different FB-20 peptide variants to inhibit the interaction between FAM19A5 and LRRC4B protein. Again, plates were coated with 100 nM of either LRRC4B protein fragment #1 (amino acids 36-576 of SEQ ID NO: 2; SEQ ID NO: 5) or LRRC4B protein fragment #2 (amino acids 453-576 of SEQ ID NO: 2; SEQ ID NO: 7). Then, recombinant FAM19A5 protein (5 ng/ml for plates coated with LRRC4B fragment #1; and 1 ng/mL for plates coated with LRRC4B fragment #2) was added to the plates in combination with 20 nM of the different peptides described above. After incubating the plates at 37° C., the amount of FAM19A5 protein bound to the coated LRRC4B protein fragments was assessed using HRP-conjugated anti-FAM19A5 (1-65) antibody. […]

[5] = target: binding of FAM19A5 protein to full-length ectodomain of LRRC4 protein (Homo sapiens, UniProt Q7Z5A7); experiment: Competitive inhibition assay, plate coated with full-length ectodomain of LRRC4; conditions: FAM19A5 5 ng/mL; 100 nM/well coat
Experimental: as §1

[6] = target: binding of FAM19A5 protein to full-length ectodomain of LRRC4C protein (Homo sapiens, UniProt Q7Z5A7); experiment: Competitive inhibition assay, plate coated with full-length ectodomain of LRRC4C; conditions: FAM19A5 5 ng/mL; 100 nM/well coat
Experimental: as §1

[7] = target: T2, FAM19A5 isoform 2 - LRRC4B protein complex in HEK293 cells (Homo sapiens, UniProt Q7Z5A7); experiment: Immunofluorescence: dissociation of FAM19A5 from full-length LRRC4B in HEK293 cells; format: cell-based; conditions: HEK293 cells expressing FAM19A5 isoform 2 and LRRC4B, treated 30 minutes
T2 construct: expressed in transfected cells; host or cells: HEK293
Experimental: Since LRRC4B protein fragments containing the binding domain described in Example 2 (e.g., LRRC4B (453-576); i.e., construct #11 in Table 6) was able to bind to FAM19A5 protein with high affinity, it was next assessed whether such protein fragments could compete with naturally existing LRRC4B protein for binding to FAM19A5 protein, and thereby, dissociate the FAM19A5-LRRC4 protein family complex. Briefly, HEK293 cells expressing both FAM19A5 isoform 2 and LRRC4B protein were treated in vitro for 30 minutes with either LRRC4B (453-576)-hFc or mutant LRRC4B (453-576)-hFc (includes alanine substitutions at positions 488 and 489 of SEQ ID NO: 2; SEQ ID NO: 16) protein fragments. Then, cells were immunostained with anti-FAM19A5 (1-65) and anti-LRRC4B antibodies to determine the expression of FAM19A5 and full-length LRRC4B proteins, respectively. The hFc-fused LRRC4B protein fragments were determined using an anti-hIgG antibody. The nuclei were stained with Hoechst 33342.

binding of FAM19A5 protein to full-length ectodomain of LRRC4 protein, sequence (Q7Z5A7 44-132): as above
binding of FAM19A5 protein to full-length ectodomain of LRRC4C protein, sequence (Q7Z5A7 44-132): as above
binding of FAM19A5 protein to full-length ectodomain of the LRRC4B protein (amino acids 36-576 of SEQ ID NO: 2), sequence (Q7Z5A7 44-132): as above
T2 sequence (Q7Z5A7 1-125 isoform Q7Z5A7-2, one chain of several): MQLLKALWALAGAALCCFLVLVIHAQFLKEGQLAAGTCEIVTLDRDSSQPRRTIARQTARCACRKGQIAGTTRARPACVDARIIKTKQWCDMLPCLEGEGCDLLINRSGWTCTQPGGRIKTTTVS

EC50 [2]: 640 pM
B1: full-length ectodomain of LRRC4B protein (amino acids 36-576 of SEQ ID NO: 2) conjugated to human Fc (Fc fusion, not shown: a dimerising Fc or GST)
chain: AGGGGVAVTSAAGGGSPPATSCPVACSCSNQASRVICTRRDLAEVPASIPVNTRYLNLQENGIQVIRTDTFKHLRHLEILQLSKNLVRKIEVGAFNGLPSLNTLELFDNRLTTVPTQAFEYLSKLRELWLRNNPIESIPSYAFNRVPSLRRLDLGELKRLEYISEAAFEGLVNLRYLNLGMCNLKDIPNLTALVRLEELELSGNRLDLIRPGSFQGLTSLRKLWLMHAQVATIERNAFDDLKSLEELNLSHNNLMSLPHDLFTPLHRLERVHLNHNPWHCNCDVLWLSWWLKETVPSNTTCCARCHAPAGLKGRYIGELDQSHFTCYAPVIVEPPTDLNVTEGMAAELKCRTGTSMTSVNWLTPNGTLMTHGSYRVRISVLHDGTLNFTNVTVQDTGQYTCMVTNSAGNTTASATLNVSAVDPVAAGGTGSGGGGPGGSGGVGGGSGGYTYFTTVTVETLETQPGEEALQPRGTEKEPPGPTTDGVWGGGRPGDAAGPASSSTTAPAPRSSRPTEKAFTVPITDVTENALKDLDDVMKTTK

inhibition of FAM19A5 binding to coated full-length LRRC4B ectodomain protein (in words) [4]: also able to inhibit the interaction
B2: LRRC4B (484-576): LRRC4B ectodomain fragment, amino acids 484-576 of SEQ ID NO: 2 (protein)
chain: YTYFTTVTVETLETQPGEEALQPRGTEKEPPGPTTDGVWGGGRPGDAAGPASSSTTAPAPRSSRPTEKAFTVPITDVTENALKDLDDVMKTTK
binding to FAM19A5 protein (co-immunoprecipitation) [3]: able to bind to the FAM19A5 protein with varying degree | inhibition of FAM19A5 binding to coated LRRC4 protein (in words) [5]: able to inhibit FAM19A5 protein from binding | inhibition of FAM19A5 binding to coated LRRC4C protein (in words) [6]: able to inhibit FAM19A5 protein from binding

EC50 [2]: 480 pM
B4: full-length ectodomain of LRRC4 protein (amino acid residues 39-527 of SEQ ID NO: 1) conjugated to human Fc (Fc fusion, not shown: a dimerising Fc or GST)
chain: ASAGPQNCPSVCSCSNQFSKVVCTRRGLSEVPQGIPSNTRYLNLMENNIQMIQADTFRHLHHLEVLQLGRNSIRQIEVGAFNGLASLNTLELFDNWLTVIPSGAFEYLSKLRELWLRNNPIESIPSYAFNRVPSLMRLDLGELKKLEYISEGAFEGLFNLKYLNLGMCNIKDMPNLTPLVGLEELEMSGNHFPEIRPGSFHGLSSLKKLWVMNSQVSLIERNAFDGLASLVELNLAHNNLSSLPHDLFTPLRYLVELHLHHNPWNCDCDILWLAWWLREYIPTNSTCCGRCHAPMHMRGRYLVEVDQASFQCSAPFIMDAPRDLNISEGRMAELKCRTPPMSSVKWLLPNGTVLSHASRHPRISVLNDGTLNFSHVLLSDTGVYTCMVTNVAGNSNASAYLNVSTAELNTSNYSFFTTVTVETTEISPEDTTRKYKPVPTTSTGYQPAYTTSTTVLIQTTRVPKQVAVPATDTTDKMQTSLDEVMKTTK

Second part, the molecule before the results:

Molecule: GYTYFTTVTVEWYETQPGEEA [FB-21 (W12Y13)]
fold increase in the ability to dissociate the LRRC4B-FAM19A5 complex, compared with the wild-type FB-21 [1]: 2.9 fold

B3: LRRC4B mutant: LRRC4B (453-576) with alanine substitutions at positions 488 and 489 of SEQ ID NO: 2 (protein)
chain: VSAVDPVAAGGTGSGGGGPGGSGGVGGGSGGYTYFAAVTVETLETQPGEEALQPRGTEKEPPGPTTDGVWGGGRPGDAAGPASSSTTAPAPRSSRPTEKAFTVPITDVTENALKDLDDVMKTTK
modifications: human Fc
dissociation of FAM19A5 from full-length LRRC4B protein [7]: remained largely bound to the full-length LRRC4B protein | inhibition of FAM19A5 binding to coated full-length LRRC4B ectodomain protein (in words) [4]: much inferior in their ability to inhibit the interaction | inhibition of FAM19A5 binding to coated LRRC4 protein (in words) [5]: minimal effect | inhibition of FAM19A5 binding to coated LRRC4C protein (in words) [6]: minimal effect
